Holding throughout (experiment): library pulldown, LC-MS of supernatant; ratio vs GFP-Nb control (0=captured, 1=not captured)
The target in one assay is T1, BC2T V7T (human).
T1 construct: position 7 library, row T
T1 peptide: Ac-PDRKAATSHWQQ-NH2
The gist of the method:
(§1)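 Unbound peptide left in supernatant after 1 h pulldown in PBS/0.01% CHAPS measured by reversed-phase LC-MS (8–30% eluent B gradient, 20 min).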

For a further assay, the target named is T2, BC2T A5E (human).
T2 construct: position 5 library, row E
T2 peptide: Ac-PDRKEAVSHWQQ-NH2
The gist of the method: as §1

A further assay addresses T3, BC2T D2Q (human).
T3 construct: position 2 library, row Q
T3 peptide: Ac-PQRKAAVSHWQQ-NH2
The gist of the method:
as §1

Another assay concerns the target T4, BC2T V7F (human).
T4 construct: position 7 library, row F
T4 peptide: Ac-PDRKAAFSHWQQ-NH2
The gist of the method:
as §1

The target in a further assay is T5, BC2T A5F (human).
T5 construct: position 5 library, row F
T5 peptide: Ac-PDRKFAVSHWQQ-NH2
The gist of the method: as §1

Another assay has as its target T6, BC2T D2F (human).
T6 construct: position 2 library, row F
T6 peptide: Ac-PFRKAAVSHWQQ-NH2
In outline:
as §1

The target in a further assay is T7, BC2T D2E (human).
T7 construct: position 2 library, row E
T7 peptide: Ac-PERKAAVSHWQQ-NH2
In outline: as §1

Another assay has as its target T8, BC2T A5D (human).
T8 construct: position 5 library, row D
T8 peptide: Ac-PDRKDAVSHWQQ-NH2
The gist of the method:
as §1

The target of a further assay is T9, BC2T K4W (human).
T9 construct: position 4 library, row W
T9 peptide: Ac-PDRWAAVSHWQQ-NH2
The gist of the method:
as §1

The target in the next assay is T10, BC2T D2C(Abu) (human, SMILES …).
T10 construct: position 2 library, row C(Abu) / C*
T10 peptide: Ac-P[GABA]RKAAVSHWQQ-NH2
The gist of the method:
as §1

The target of another assay is T11, BC2T V7Q (human).
T11 construct: position 7 library, row Q
T11 peptide: Ac-PDRKAAQSHWQQ-NH2
The gist of the method: as §1

The next assay deals with T12, BC2T A6E (human).
T12 construct: position 6 library (BC2TA6X), row E
T12 peptide: Ac-PDRKAEVSHWQQ-NH2
In outline:
as §1

The target in another assay is T13, BC2T P1R (human).
T13 construct: position 1 library, row R
T13 peptide: Ac-RDRKAAVSHWQQ-NH2
In outline:
as §1

In the next assay the target is T14, BC2T P1D (human).
T14 construct: position 1 library, row D
T14 peptide: Ac-DDRKAAVSHWQQ-NH2
The gist of the method: as §1

The target in a further assay is T15, BC2T A5H (human).
T15 construct: position 5 library, row H
T15 peptide: Ac-PDRKHAVSHWQQ-NH2
In outline: as §1

A further assay deals with T16, BC2T K4T (human).
T16 construct: position 4 library, row T
T16 peptide: Ac-PDRTAAVSHWQQ-NH2
The gist of the method:
as §1

The target of a further assay is T17, BC2T A6Y (human).
T17 construct: position 6 library (BC2TA6X), row Y
T17 peptide: Ac-PDRKAYVSHWQQ-NH2
The gist of the method:
as §1

The next assay deals with T18, BC2T A5T (human).
T18 construct: position 5 library, row T
T18 peptide: Ac-PDRKTAVSHWQQ-NH2
The gist of the method: as §1

For a further assay, the target named is T19, BC2T R3D (human).
T19 construct: position 3 library (BC2TR3X), row D
T19 peptide: Ac-PDDKAAVSHWQQ-NH2
The gist of the method:
as §1

For another assay, the target named is T20, BC2T A6W (human).
T20 construct: position 6 library (BC2TA6X), row W
T20 peptide: Ac-PDRKAWVSHWQQ-NH2
In outline:
as §1

In the next assay the target is T21, BC2T D2W (human).
T21 construct: position 2 library, row W
T21 peptide: Ac-PWRKAAVSHWQQ-NH2
The gist of the method: as §1

The target in another assay is T22, BC2T A6S (human).
T22 construct: position 6 library (BC2TA6X), row S
T22 peptide: Ac-PDRKASVSHWQQ-NH2
In outline: as §1

Changes are numbered by the printed parent chain. Square brackets hold non-standard residues; d marks the D form. GABA = NCCCC(=O)O

B1: BC2 nanobody (BC2-Nb) (VHH)
VHH: QVQLVESGGGLVQPGGSLTLSCTASGFTLDHYDIGWFRQAPGKEREGVSCINNSDDDTYYADSVKGRFTIFMDNAKDTVYLQMNSLKPEDTAIYYCAEARGCKRGRYEYDFWGQGTQVTVSS
notes: immobilised on agarose/sepharose beads in this assay; also called BC2 nanotrap (immobilised form); not shown: C-terminal 6xHis-tag added by pHEN6 vector
Turning to B1, the ratio in the assay with BC2T V7T amounted to 0.2; in the assay with BC2T A5E, 0.2; with BC2T D2Q, 0.1; with BC2T V7F, 0.2; with BC2T A5F, 0.1; in the assay with BC2T D2F it was 0.2. Besides, the ratio with BC2T D2E stood at 0.2; in the assay with BC2T A5D, 0.5; with BC2T K4W it was 0.3; with BC2T D2C(Abu), 0.1; with BC2T V7Q, 0.4; with BC2T A6E it was 1.1. The ratio in the assay with BC2T P1R turned out to be 0.2; with BC2T P1D, 1; with BC2T A5H it was 0.2; in the assay with BC2T K4T, 0.2; with BC2T A6Y, 1; in the assay with BC2T A5T, 0.1. For the same molecule, the ratio stood at 1 with BC2T R3D, 1.1 in the assay with BC2T A6W, 0.2 in the assay with BC2T D2W and 0.5 in the assay with BC2T A6S.

B2: BC2-NbR106S (VHH)
VHH: B1 VHH with R106S
notes: immobilised on beads in this assay; not shown: C-terminal 6xHis-tag added by pHEN6 vector
Take B2: the ratio in the assay with BC2T V7T turned out to be 0.3; with BC2T A5E, 0.7; with BC2T D2Q, 0.2; with BC2T V7F, 0.4; in the assay with BC2T A5F, 0.2; with BC2T D2F, 0.3. Besides, the ratio was determined as 0.4 with BC2T D2E; 0.9 in the assay with BC2T A5D; 0.8 with BC2T K4W; 0.3 with BC2T D2C(Abu); 0.5 in the assay with BC2T V7Q; 1 with BC2T A6E. Further, the ratio amounted to 0.4 in the assay with BC2T P1R; 0.8 with BC2T P1D; 0.3 in the assay with BC2T A5H; 0.7 in the assay with BC2T K4T; 0.9 with BC2T A6Y; 0.3 with BC2T A5T. Moreover, the ratio was 1 with BC2T R3D, 1 with BC2T A6W, 0.3 with BC2T D2W and 0.8 with BC2T A6S.

The values are drawn from US20170137467A1 (CHROMOTEK, published 2017).
